Measurements as given in paper PMC9855357, “Different Forms of Disorder in NMDA-Sensitive Glutamate Receptor Cytoplasmic Domains Are Associated with Differences in Condensate Formation” (Biomolecules, 2022).

Target: T1, Full-length PSD-95 (post synaptic density protein of 95 kDa) (Rattus norvegicus, UniProt P31016 1-724)
T1 construct: PSD-95, Rattus norvegicus, full length
Assay: co-sedimentation; ternary mixture 1:1:1 of PSD-95, CC-PBM and CTD2A or CTD2B, 20 µM each, 20 mM tris-HCl, 150 mM NaCl, pH 7.4, 25 °C for 5 min, 13,200 x g for 1 min; supernatant and pellet on SDS-PAGE, Coomassie
Details: both partners purified

T1 sequence (P31016 whole entry): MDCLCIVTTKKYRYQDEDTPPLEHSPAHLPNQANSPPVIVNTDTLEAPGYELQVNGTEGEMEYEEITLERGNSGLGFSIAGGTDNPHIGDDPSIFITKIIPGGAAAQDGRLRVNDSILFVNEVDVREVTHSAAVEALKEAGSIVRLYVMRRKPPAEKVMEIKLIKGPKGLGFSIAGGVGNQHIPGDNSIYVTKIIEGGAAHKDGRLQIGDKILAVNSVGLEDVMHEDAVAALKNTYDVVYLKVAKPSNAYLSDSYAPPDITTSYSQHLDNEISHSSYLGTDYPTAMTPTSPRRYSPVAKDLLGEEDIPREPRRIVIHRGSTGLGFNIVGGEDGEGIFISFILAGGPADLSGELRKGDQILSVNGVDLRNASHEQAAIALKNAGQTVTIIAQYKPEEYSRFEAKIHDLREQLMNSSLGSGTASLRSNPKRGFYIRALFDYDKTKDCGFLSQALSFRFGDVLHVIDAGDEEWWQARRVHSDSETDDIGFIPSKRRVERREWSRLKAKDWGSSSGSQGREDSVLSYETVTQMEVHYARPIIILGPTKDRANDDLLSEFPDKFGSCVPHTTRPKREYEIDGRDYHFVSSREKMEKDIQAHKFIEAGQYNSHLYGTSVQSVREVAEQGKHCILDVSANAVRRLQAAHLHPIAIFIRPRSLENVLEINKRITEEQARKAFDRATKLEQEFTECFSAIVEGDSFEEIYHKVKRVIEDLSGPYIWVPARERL

B1: C-terminal domain 2 (CTD2) of GluN2B (residues 1259–1482) (domain or fragment, Rattus norvegicus, UniProt Q00960 1259-1482, looked up)
chain: SLQELDQPAAPVAVTSNASSTKYPQSPTNSKAQKKNRNKLRRQHSYDTFVDLQKEEAALAPRSVSLKDKGRFMDGSPYAHMFEMPAGESSFANKSSVPTAGHHHNNPGSGYMLSKSLYPDRVTQNPFIPTFGDDQCLLHGSKSYFFRQPTVAGASKTRPDFRALVTNKPVVVTLHGAVPGRFQKDICIGNQSNPCVPNNKNPRAFNGSSNGHVYEKLSSIESDV
notes: GluN2B subunit of the NMDA receptor, Rattus norvegicus, C-terminal domain 2, residues 1259-1482; Expressed from pPROEX HTB; the His tag was removed with TEV protease; also called CTD2B; GluN2B CTD2; not shown: His6, N-terminal, cleaved
binding result: binds
